{"source": "patent US20230357704A1", "about": "(Alliance for Sustainable Energy, LLC, priority 2022, published 2023)", "molecules": {"B1": {"name": "NAD+-utilizing FDH variant: Pseudomonas sp. 101 formate dehydrogenase mutant A198G, SEQ ID NO: 30, expressed in P. renovo chloroplast (protein)", "chain": "MAKVLCVLYDDPVDGYPKTYARDDLPKIDHYPGGQTLPTPKAIDFTPGQLLGSVSGELGLRKYLESNGHTLVVTSDKDGPDSVFERELVDADVVISQPFWPAYLTPERIAKAKNLKLALTAGIGSDHVDLQSAIDRNVTVAEVTYCNSISVAEHVVMMILSLVRNYLPSHEWARKGGWNIADCVSHAYDLEAMHVGTVGAGRIGLAVLRRLAPFDVHLHYTQRHRLPESVEKELNLTWHATREDMYPVCDVVTLNAPLHPETEHMINDETLKLFKRGAYIVNTARGKLCDRDAVARALESGRLAGYAGDVWFPQPAPKDHPWRTMPYNGMTPHISGTTLTAQARYAAGTREILECFFEGRPIRDEYLIVQGGALAGTGAKVYSKGNATGGSEEAAKFKKAV", "modifications": "Pseudomonas sp. 101"}, "B2": {"name": "NADP+-utilizing FDH variant: Pseudomonas sp. 101 formate dehydrogenase mutant A198G/D221Q/C255A/H379K/S380V, SEQ ID NO: 32, expressed in P. renovo chloroplast (protein)", "chain": "MSDPTLAQPHLVEVHTTLETVVTTHNHNHRPSINASGEKKKIVGVFYKGNEYAKLNPNFVGCVEGALGIREWLESQGHQYIVTDDKEGPDSELEKHIPDAHVIISTPFHPAYVTAERIKKAQKLELLLTAGIGSDHVDLKAAAAAGLTVAEVTGSNVVSVAEDELMRILILMRNFLPGYHQAVKGEWNVAGIAHRAYDLEGKTVGTVGAGRIGKLLLQRLKPFNCNLLYFDRLRIDPELEKEIGAKFEEDLDAMLPKCDVIVINTPLTEQTRGLFDKNRIAKCKKGVLIVNNARGAIADTQAIADACSSGHVAGYSGDVWDPQPAPKDHPWRYMPNHAMTPHISGTTIDAQLRYAAGVKDMLDRHFKGEDFPEQNYIVKEGQLASQYR", "modifications": "Pseudomonas sp. 101"}, "B3": {"name": "SV26: Candida boidinii FDH (C23S), SEQ ID NO: 14 (protein, listed as Candida boidinii)", "chain": "MKIVLVLYDAGKHAADEEKLYGSTENKLGIANWLKDQGHELITTSDKEGETSELDKHIPDADIIITTPFHPAYITKERLDKAKNLKLVVVAGVGSDHIDLDYINQTGKKISVLEVTGSNVVSVAEHVVMTMLVLVRNFVPAHEQIINHDWEVAAIAKDAYDIEGKTIATIGAGRIGYRVLERLLPFNPKELLYYDYQALPKEAEEKVGARRVENIEELVAQADIVTVNAPLHAGTKGLINKELLSKFKKGAWLVNTARGAICVAEDVAAALESGQLRGYGGDVWFPQPAPKDHPWRDMRNKYGAGNAMTPHYSGTTLDAQTRYAEGTKNILESFFTGKFDYRPQDIILLNGEYVTKAYGKHDKK"}, "B4": {"name": "SV27: Candida boidinii FDH (C23S/C262A), SEQ ID NO: 16 (protein, listed as Candida boidinii)", "chain": "MKIVLVLYDAGKHAADEEKLYGSTENKLGIANWLKDQGHELITTSDKEGETSELDKHIPDADIIITTPFHPAYITKERLDKAKNLKLVVVAGVGSDHIDLDYINQTGKKISVLEVTGSNVVSVAEHVVMTMLVLVRNFVPAHEQIINHDWEVAAIAKDAYDIEGKTIATIGAGRIGYRVLERLLPFNPKELLYYDYQALPKEAEEKVGARRVENIEELVAQADIVTVNAPLHAGTKGLINKELLSKFKKGAWLVNTARGAIAVAEDVAAALESGQLRGYGGDVWFPQPAPKDHPWRDMRNKYGAGNAMTPHYSGTTLDAQTRYAEGTKNILESFFTGKFDYRPQDIILLNGEYVTKAYGKHDKK"}}, "key": {"P. renovo [1]": {"tested_on": "P. renovo", "experiment": "Formate utilization, HPLC analysis of culture supernatant", "format": "cell-based, Picochlorum renovo", "conditions": "for formate consumption: 10 mM sodium formate, evaporative losses taken into account; for formate consumed from the culture media: 25 mM formate, 2% CO2, after 85 hours of cultivation", "procedure": "Six μL of filtered cell-free supernatant was used for injection into the Bio-Rad HPX-87H (300×7.8 mm) ion exchange column. Elution of the organic acid was carried out with 0.01 N sulfuric acid at a flow rate of 0.6 mL per min. The column temperature was maintained at 55° C."}, "P. renovo [2]": {"tested_on": "P. renovo", "experiment": "Growth of FDH-expressing P. renovo in media supplemented with formate", "format": "cell-based, Picochlorum renovo", "conditions": "for growth in media supplemented with formate: 25 mM formate, 2% CO2, pH 6.0; for growth on sodium formate: up to 75 mM sodium formate, 2% CO2, pH=6 Bis-Tris, 5 mM NH4Cl", "procedure": "Cultures were mixed via shaking (170 rpm) at 33° C., 2% CO2, and 125 uE cool white LED lighting.\nFDH variants utilized were mutated from the Pseudomonas sp. 101 FDH, specifically NAD+ utilizing variant (A198G) and NADP+ utilizing variant (A198G/D221Q/C255A/H379K/S380V). FDH transformation vectors were prepared by Twist Bioscience, cloning a ribosomal binding site ([…]) and codon optimized FDH downstream of the ptxD selectable marker in our previously described chloroplast transformation vector. P. renovo transformation was carried out as described previously, with the exception that Critter Technology binding and precipitation buffers were used according to the manufacturers recommendations to bind DNA (plasmid prepared by Twist Bioscience) onto the gold microcarriers for biolistic transformation."}}}
{"molecule": "B1", "values": [{"measurement": "formate concentration in culture", "setting": "P. renovo [1]; 5 mM formate added (initial 6.2 mM), ambient CO2 (0.04%), after 312 hours, HPLC", "value": 1.7, "unit": "mM"}, {"measurement": "utilization of the added formate", "setting": "P. renovo [1]; 5 mM formate, ambient CO2 (0.04%), 312 hours", "value": "74+/−2%"}, {"measurement": "formate consumption", "setting": "P. renovo [1]; 2% CO2, at 85 hours", "value": "77±2", "unit": "%"}, {"measurement": "formate consumption", "setting": "P. renovo [1]; 2% CO2, at 132 hours", "value": "88±1", "unit": "%"}, {"measurement": "formate consumed from the culture media", "setting": "P. renovo [1]", "value": "48±1", "unit": "%"}, {"measurement": "growth when supplemented with formate", "setting": "P. renovo [2]; 5 mM formate, ambient CO2 (0.04%), versus no formate supplementation", "value": "enhanced growth"}, {"measurement": "optical density relative to wild-type", "setting": "P. renovo [2]; 5 mM formate, ambient CO2 (0.04%), versus unsupplemented wild-type", "value": "> 3.8", "unit": "×"}, {"measurement": "culture density", "setting": "P. renovo [2]; 10 mM formate compared to 25 mM formate, 2% CO2", "value": "higher culture density"}, {"measurement": "growth in media supplemented with formate", "setting": "P. renovo [2]", "value": "Growth in media supplemented with 25 mM formate was observed"}]}
{"molecule": "B2", "values": [{"measurement": "formate consumed from the culture media", "setting": "P. renovo [1]", "value": "no formate utilization"}, {"measurement": "growth in media supplemented with formate", "setting": "P. renovo [2]", "value": "no growth"}, {"measurement": "growth in media supplemented with formate", "setting": "P. renovo [2]; listed as NADP+ utilizing FDH variant", "value": "did not grow"}]}
{"molecule": "B3", "values": [{"measurement": "growth on sodium formate", "setting": "P. renovo [2]", "value": "able to grow"}]}
{"molecule": "B4", "values": [{"measurement": "growth on sodium formate", "setting": "P. renovo [2]", "value": "able to grow"}]}
